Laboratory results from US20210388331A1 (NEURO BIO, published 2021).

Target: T1, α7 nicotinic-receptor (in rat brain slices / rat brain membranes) (rat, UniProt Q05941 23-502)
T1 construct: whole, on cells; also called α7 receptor; alpha-7 nicotinic acetylcholine receptor
Experiment: [3H] ivermectin displacement, rat brain membranes (told in the legend of FIG. 6 only)

T1 sequence (Q05941 23-502): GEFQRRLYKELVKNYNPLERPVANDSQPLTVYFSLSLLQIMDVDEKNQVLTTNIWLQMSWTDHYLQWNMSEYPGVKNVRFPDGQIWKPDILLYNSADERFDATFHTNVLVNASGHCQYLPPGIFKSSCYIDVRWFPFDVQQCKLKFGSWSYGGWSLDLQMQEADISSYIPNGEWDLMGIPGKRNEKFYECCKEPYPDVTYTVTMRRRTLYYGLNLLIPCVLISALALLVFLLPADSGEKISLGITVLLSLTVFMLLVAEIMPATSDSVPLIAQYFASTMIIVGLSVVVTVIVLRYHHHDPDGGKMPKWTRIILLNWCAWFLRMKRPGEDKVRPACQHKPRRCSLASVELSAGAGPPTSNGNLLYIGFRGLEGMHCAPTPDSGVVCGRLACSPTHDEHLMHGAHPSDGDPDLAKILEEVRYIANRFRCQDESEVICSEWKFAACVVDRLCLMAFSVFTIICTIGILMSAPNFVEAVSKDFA

binding result: binds
B1: T14 (AChE C-terminal peptide, linear) (peptide)
peptide: AEFHRWSSYMVHWK
notes: also called linear T14
